Source: patent US20080187528A1 (FUNCTIONAL GENETICS, published 2008)

Target: T1, Ebola VP40 (1-326) (Ebola virus (EBOV), UniProt Q05128 1-326)
T1 sequence: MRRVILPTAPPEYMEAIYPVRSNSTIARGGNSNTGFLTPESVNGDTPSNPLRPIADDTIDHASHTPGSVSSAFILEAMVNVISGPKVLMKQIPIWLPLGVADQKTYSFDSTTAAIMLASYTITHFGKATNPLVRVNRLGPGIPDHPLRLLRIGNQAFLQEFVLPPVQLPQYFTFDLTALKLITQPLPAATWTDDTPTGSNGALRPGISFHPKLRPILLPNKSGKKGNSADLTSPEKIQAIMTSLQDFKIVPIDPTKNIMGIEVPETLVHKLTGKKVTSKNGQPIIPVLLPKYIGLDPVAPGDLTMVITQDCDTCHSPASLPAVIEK
Experiment: co-immunoprecipitation with anti-Myc antibody from 293T lysates

B1: TSG101 1-140 truncated mutant, C-terminally tagged with a Myc epitope (other)
chain: MAVSESQLKKMVSKYKYRDLTVRETVNVITLYKDLKPVLDSYVFNDGSSRELMNLTGTIPVPYRGNTYNIPICLWLLDTYPYNPPICFVKPTSSMTIKTGKHVDANGKIYLPYLHEWKHPQSDLLGLIQVMIVVFGDEPP
notes: Expressed in 293T cells
B1: no binding.
